The record followed here is the supplement of paper PMC9170038.

This series deals with MS2 coat protein. Description: apparent KD of MS2 coat protein; designed switch direction (-1 OFF switch, 1 ON switch): -1; higher = weaker reporter binding. In a few lines: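 SNAP-549-labelled MS2 coat protein was titrated, doubling from 0.7 or 1.5 nM to 3 µM, over designed RNA switches transcribed on Illumina chips by stalled E. coli RNA polymerase. Runs were done without input, with 200 uM small-molecule ligand, or with an oligonucleotide input. Apparent KD is the per-design median over clusters of curve-fitted normalised fluorescence.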

The mark [1] stands for this setting: input ligand: microRNA oligo, concentration not stated.
Setting [2] is: Eterna round: R95, input ligand: microRNA oligo, concentration not stated.
Setting [3] is: Eterna round: R95, input ligand: FMN 200 uM.
Setting [4] is: Eterna round: R95, input ligand: none.

For the sequence “AUAAGUGAUAAGGAUAUUACUAGCUUCGGCUAGUGAGAAGGUAUCACAUGAGGAUCACCCAUGUGUUCCAAUAA [Ex6/7-B1] (Eterna round: R97, puzzle: Exclusion 6)”, the “apparent KD of MS2 coat protein” value (input ligand: FMN 200 uM) turned out to be 270 nM and the “apparent KD of MS2 coat protein” value (input ligand: none) worked out at 119 nM.

Consider “AUAAUGUAAGGAUAUCAGUCGACUAGCGAUAGCUAGUCGACUGAGAAGGUACAUGAGGAUCACCCAUGUGAAUA [E4/16-A4] (Eterna round: R97, puzzle: Exclusion 4)”, for which the “apparent KD of MS2 coat protein” value was determined as 213 nM (input ligand: FMN 200 uM) and 46 nM (input ligand: none).

As to “AUAAUGUAAGGAUAUCAGUCGACUAGCUGCGGCUAGUCGACUGAGAAGGUACAUGAGGAUCACCCAUGUGAUUA [E4/10-A3] (Eterna round: R97, puzzle: Exclusion 4)”, the “apparent KD of MS2 coat protein” value worked out at 889 nM (input ligand: FMN 200 uM) and 138 nM (input ligand: none).

Consider “AUAAUGUAAGGAUAUCAGUCGUUAAUAAUUUAAUAAUCGACUGAGAAGGUACAUGAGGAUCACCCAUGUGAUCA [E4/8-B1] (Eterna round: R97, puzzle: Exclusion 4)”, for which the “apparent KD of MS2 coat protein” value came out at 350 nM (input ligand: FMN 200 uM) and 930 nM (input ligand: none).

Regarding “AUAAUGUCAGGAUAUCAGUCGACUAGCCUCGGCUAGUCGACUGAGAAGGGACAUGAGGAUCACCCAUGUGUUUC [E4/14-A2] (Eterna round: R97, puzzle: Exclusion 4)”, the “apparent KD of MS2 coat protein” value by setting is: (input ligand: FMN 200 uM) 811 nM; (input ligand: none) 569 nM.

For “AUAAUGUCAGGAUAUCAGUCGUACAGCCUCGGCUGUACGACUGAGAAGGGACAUGAGGAUCACCCAUGUGGUUA [E4/7-A2] (Eterna round: R97, puzzle: Exclusion 4)”, the “apparent KD of MS2 coat protein” value by setting is: (input ligand: FMN 200 uM) 34.2 nM; (input ligand: none) 562 nM.

Regarding “AUAAUGUCAGGAUAUCAGUCGUACAGCUUCGGCUGUACGACUGAGAAGGGACAUGAGGAUCACCCAUGUGGUUA [E4/7-A1] (Eterna round: R97, puzzle: Exclusion 4)”, the “apparent KD of MS2 coat protein” value runs as follows: (input ligand: FMN 200 uM) 36.4 nM; (input ligand: none) 228 nM.

Take “AUAAUGUGAGGAUAUAUGAAUCACGGUGAUACACCGUGAAGAUAGAAGGUACAUGAGGAUCACCCAUGUAGGGC [Mod of Anonveat 14 - Jieux - Exclusion 4] (Eterna round: R97, puzzle: Exclusion 4)”: the “apparent KD of MS2 coat protein” value stood at 39.5 nM (input ligand: FMN 200 uM) and 42.3 nM (input ligand: none).

Consider “AUAAUGUGAGGAUAUCAGUCGACUAGCUUCGGCUAGUCGACUGAGAAGGCACAUGAGGAUCACCCAUGUGUUUC [E4/15-A1] (Eterna round: R97, puzzle: Exclusion 4)”, for which the “apparent KD of MS2 coat protein” value is 41.7 nM (input ligand: FMN 200 uM) and 18.7 nM (input ligand: none).

As for “AUAAUGUGAGGAUAUCAGUCGUACAGCCUCGGCUGUACGACUGAGAAGGCACAUGAGGAUCACCCAUGUGGUCA [E4/5-A2] (Eterna round: R97, puzzle: Exclusion 4)”, the “apparent KD of MS2 coat protein” value stood at 156 nM (input ligand: FMN 200 uM) and 590 nM (input ligand: none).

“AUAAUUAGUUCAGGAUAUCAGCACGUUUAGUGCUGAGAAGGGAACAUGAGGAUCACCCAUGUGAUCAAUAUUAUAAUUUUAAUU [ENG1/12-B2] (Eterna round: R96, puzzle: Exclusion NG 1)”: the “apparent KD of MS2 coat protein” value by setting is: (input ligand: FMN 200 uM) 210 nM; under setting [1], 754 nM; (input ligand: none) 1100 nM.

“AUACAACAUGAGGAUCACCCAUGUGAGGAUAUGCGAUACAUCAUCAUCAUCAUCAAUCGCAGAAGGCACAACAU [Different] (puzzle: Exclusion 1)”: the “apparent KD of MS2 coat protein” value under setting [2] stood at 52.3 nM.

For “AUACGUCAAGUCAGGAUAUAUACCGCGACUACGGCGUAGAAGGGACAUGAGGAUCACCCAUGUAAAAGGGCAAA [Ceerrilaza] (puzzle: Brourd's mod of Exclusion 4)”, the “apparent KD of MS2 coat protein” value is 37.7 nM under setting [3], 36.5 nM under setting [2] and 34.5 nM under setting [4].

For the sequence “AUAGGAGUAGGAUAUUCAGUUCGACACAUGAGGAUCACCCAUGUCGCUGUGGCCGGGCACGGAGAAGGAUUGUUGU [Eternabot (L1) Solution 15] (Eterna round: R97, puzzle: Exclusion 5)”, the “apparent KD of MS2 coat protein” value was found to be 39.1 nM (input ligand: FMN 200 uM) and 36.3 nM (input ligand: none).

With “AUAGUGUGAGGAUAUCGGACCAGUCCAGUUAGGAGCAGGAUCGAGAAGGUACAUGAGGAUCACCCAUGUGACCA [Eternabot (L2) Solution 8] (Eterna round: R97, puzzle: Exclusion 4)”, the “apparent KD of MS2 coat protein” value turned out to be 30.8 nM (input ligand: FMN 200 uM) and 16.8 nM (input ligand: none).

Regarding “AUAUUAAGUGUGAGGAUAUGCUGGUCCUUGGAUCAGCAGAAGGCACAUGAGGAUCACCCAUGUAAUAUAUUUAA [Mat - Exclusion 4 - JL Mod - D48] (puzzle: Brourd's mod of Exclusion 4)”, the “apparent KD of MS2 coat protein” value under setting [2] was found to be 87.2 nM.

Turning to “AUAUUAAUAGUAAGGAUAUGCGUGUAUGUAGUUAUGCAGAAGGUACAUGAGGAUCACCCAUGUAUUAAUGUGUG [LRO-BmodExc4-06-Oppy's Opus] (Eterna round: R97, puzzle: Brourd's mod of Exclusion 4)”, the “apparent KD of MS2 coat protein” value is 21.6 nM (input ligand: FMN 200 uM) and 17.3 nM (input ligand: none).

Turning to “AUAUUGCGAGGAUAUACAUGAGGAUCACCCAUGUGGUAGUAGAUACGGUAGGGCUAGUGUAGAAGGUGUUAUGA [EX3 #14] (Eterna round: R97, puzzle: Exclusion 3)”, the “apparent KD of MS2 coat protein” value is, setting by setting: (input ligand: FMN 200 uM) 80.2 nM; (input ligand: none) 172 nM.

Turning to “AUCAACGUGUUAGGAUAUAAGCCUAAAAGAGACUUAGAAGGGACAUGAGGAUCACCCAUGUCGGGCGCCCAAGCUAUGCGACCU [Eternabot solution 4] (Eterna round: R96, puzzle: Exclusion NG 1)”, the “apparent KD of MS2 coat protein” value (input ligand: FMN 200 uM) came to 32.8 nM, the “apparent KD of MS2 coat protein” value under setting [1] was 17.4 nM and the “apparent KD of MS2 coat protein” value (input ligand: none) is 26.3 nM.

Turning to “AUCAUGAUAGGAUAUACAUGAGGAUCACCCAUGUCCCACCCGUUACUUCUGGCCCUUUGUAGAAGGAUCGUCAA [Exy#21] (Eterna round: R97, puzzle: Exclusion 3)”, the “apparent KD of MS2 coat protein” value is, setting by setting: (input ligand: FMN 200 uM) 22.2 nM; (input ligand: none) 26.8 nM.

As for “AUCAUGUAAGGAUAUCUUACAUGUAUCGAAAGAUACAGUUAAGAGAAGGUACAUGAGGAUCACCCAUGUAUAAC [Ex4-3: 35] (puzzle: Exclusion 4)”, the “apparent KD of MS2 coat protein” value under setting [2] came out at 25.2 nM.

As for “AUCCGUUGUAUAGGAUAUAAGUGUAAACUGUACUUAGAAGGAUACAUGAGGAUCACCCAUGUUGUAAUAGAUGAGCAUAGAGCA [Eternabot solution 6] (Eterna round: R96, puzzle: Exclusion NG 1)”, the “apparent KD of MS2 coat protein” value (input ligand: FMN 200 uM) amounted to 52.2 nM, the “apparent KD of MS2 coat protein” value under setting [1] came out at 24.1 nM and the “apparent KD of MS2 coat protein” value (input ligand: none) turned out to be 30.2 nM.

Take “AUCGUACUAGGAUAUUCGGAAACGGACAUGAGGAUCACCCAUGUGAAUAUCCGCAGUCCAGAAGAAGGAGUGAACG [EX5 C.27] (Eterna round: R97, puzzle: Exclusion 5)”: the “apparent KD of MS2 coat protein” value worked out at 33.5 nM (input ligand: FMN 200 uM) and 17.9 nM (input ligand: none).

On to “AUCGUGCAGCUUUGCUGUACGAGUACAUGAGGAUCACCCAUGUAGGAUAUGGUACGCUUUGCGUGCUAGAAGGAUAUGCGAUUU [EX ENG3 1.47] (Eterna round: R96, puzzle: Exclusion NG 3)”, for which the “apparent KD of MS2 coat protein” value (input ligand: FMN 200 uM) amounted to 31.4 nM, the “apparent KD of MS2 coat protein” value under setting [1] amounted to 23.9 nM and the “apparent KD of MS2 coat protein” value (input ligand: none) was 34.6 nM.

For “AUGAAAGUAGGAUAUCGACUGAUUGACAUGAGGAUCACCCAUGUGGUUCUGUGCGGUGUUCGAGAAGGGCUAAGAU [Mageer] (puzzle: Exclusion 5)”, the “apparent KD of MS2 coat protein” value was 23.1 nM under setting [3], 15.7 nM under setting [2] and 20.9 nM under setting [4].

For the sequence “AUGCCGGUCCUCUCAGGUGUACAUGAGGAUCACCCAUGUCACGAGGAUAUCUAAGCGUGGUGGCCAGAGAAGGUGUGACAUGCU [Atibequ] (Eterna round: R96, puzzle: Exclusion NG 3)”, the “apparent KD of MS2 coat protein” value turned out to be 38.7 nM (input ligand: FMN 200 uM), 17.2 nM under setting [1] and 22.8 nM (input ligand: none).

For the sequence “AUGUUAUUCUGAGGAUAUUGUUUAAUCCUCUCACAUGAGGAUCACCCAUGUUUCCGUGUUUACCGCAAGAAGGCAGUUUUGUUU [JR_ExcNG2_Sub026] (Eterna round: R96, puzzle: Exclusion NG 2)”, the “apparent KD of MS2 coat protein” value by setting is: (input ligand: FMN 200 uM) 63.6 nM; under setting [1], 48.7 nM; (input ligand: none) 61.8 nM.

In the case of “AUGUUAUUCUGAGGAUAUUGUUUAUUCUUCUCACAUGAGGAUCACCCAUGUUUCCGUGUUUACCGCAAGAAGGCAGUUUUGUUU [JR_ExcNG2_Sub027] (Eterna round: R96, puzzle: Exclusion NG 2)”, the “apparent KD of MS2 coat protein” value under setting [1] turned out to be 22.1 nM.

As for “AUUACGCAGUAGGAUAUGGGCGGUGAGCACCGUCCAGAAGGACUGACAUGAGGAUCACCCAUGUCCUCCCACAC [Eternabot (L2) Solution 42] (Eterna round: R97, puzzle: Exclusion 6)”, the “apparent KD of MS2 coat protein” value reads like this: (input ligand: FMN 200 uM) 497 nM; (input ligand: none) 55.8 nM.

For the sequence “AUUAGUAUCUAGGAUAUCUAGUACAUAGUAUCUAGAGAAGGAGAUACAUGAGGAUCACCCAUGUUCUGUGAUCU [Exclusion 6 - 2:a] (puzzle: Exclusion 6)”, the “apparent KD of MS2 coat protein” value under setting [2] amounted to 155 nM.

Consider “AUUAUGUAAGGAUAUCUUACAUGUGACUUCGGUCACUGUCAAGAGAAGGUACAUGAGGAUCACCCAUGUAUGAC [Ex4-3: 49] (puzzle: Exclusion 4)”, for which, under setting [2], the “apparent KD of MS2 coat protein” value came out at 14.2 nM.

In the case of “AUUAUGUUAGGAUAUGCUUAUGGUGGAUAGUCCAAUGUGGUGCAGAAGGGACAUGAGGAUCACCCAUGUGCUGA [EX4 #30] (Eterna round: R97, puzzle: Exclusion 4)”, the “apparent KD of MS2 coat protein” value reads like this: (input ligand: FMN 200 uM) 92.3 nM; (input ligand: none) 57.5 nM.
